Experimental data: patent publication US20050276799A1 (PDL BIOPHARMA, published 2005)
Numbering of substitutions follows the chain as printed. In names and notes the source's numbering stands. Read-outs that look alike come from different tables or passages of the source.

Experiments:
[1] = molecular target: T1, recombinant, GPI-linked human FcRn on cell line NS0 HuFcRn (memb), clone 7-3 (human, UniProt P55899 24-297; P61769 21-119); experiment: IC50 of wild-type / IC50 of this antibody, same assay
T1 construct: Expressed from pDL208 on the surface of NS0 cells; also called human neonatal Fc receptor; not shown: human c-myc decapeptide flanked by linker peptides, then GPI linkage signal of human decay accelerating factor (vector p)

[2] = molecular target: T1, recombinant, GPI-linked human FcRn on …; experiment: competition FACS vs biotinylated HuEP5C7-IgG2M3 on NS0 cells expressing human FcRn, FSB pH 6.0
[3] = molecular target: T1, recombinant, GPI-linked human FcRn on …; experiment: IC50 of wild-type / IC50 of this antibody, same assay; remark: listed apart in the source
[4] = molecular target: T1, recombinant, GPI-linked human FcRn on …; experiment: as above; remark: listed apart in the source
[5] = molecular target: T2, recombinant, GPI-linked rhesus FcRn on cell line NS0 RhFcRn, clone R-3 (rhesus, UniProt H9Z6D2 24-297; Q6V7J5 21-119, GPI-linked); experiment: as above
T2 construct: Expressed from pDL410 on the surface of NS0 cells; not shown: human c-myc decapeptide flanked by linker peptides, then GPI linkage signal of human decay accelerating factor (vector p)

[6] = molecular target: T1, recombinant, GPI-linked human FcRn on …; experiment: competition FACS vs biotinylated OST577-IgG1 on NS0 cells expressing human FcRn, FBB pH 6.0
[7] = molecular target: T1, recombinant, GPI-linked human FcRn on …; experiment: as above; remark: listed apart in the source
[8] = molecular target: T2, recombinant, GPI-linked rhesus FcRn on …; experiment: competition FACS vs biotinylated OST577-IgG1 on NS0 cells expressing rhesus FcRn, FBB pH 6.0
[9] = molecular target: T1, recombinant, GPI-linked human FcRn on …; experiment: IC50 of wild-type / IC50 of this antibody, same assay; remark: listed apart in the source
[10] = molecular target: T2, recombinant, GPI-linked rhesus FcRn on …; experiment: as above; remark: listed apart in the source
[11] = molecular target: T1, recombinant, GPI-linked human FcRn on …; experiment: competition FACS vs biotinylated OST577-IgG2M3 on NS0 cells expressing human FcRn, FBB pH 6.0
[12] = molecular target: T2, recombinant, GPI-linked rhesus FcRn on …; experiment: competition FACS vs biotinylated OST577-IgG2M3 on NS0 cells expressing rhesus FcRn, FBB pH 6.0

B1: OST577-IgG2M3 L314A (antibody)
heavy: QVQLVESGGGVVQPGRSLRLSCAASGFTFSRYGMHWVRQAPGKGLEWVAVISYDGSNKWYADSVKGRFTISRDNSKNTLFLQMHSLRAADTGVYFCAKDQLYFGSQSPGHYWGQGTLVTVSSASTKGPSVFPLAPCSRSTSESTAALGCLVKDYFPEPVTVSWNSGALTSGVHTFPAVLQSSGLYSLSSVVTVPSSNFGTQTYTCNVDHKPSNTKVDKTVERKCCVECPPCPAPPAAAPSVFLFPPKPKDTLMISRTPEVTCVVVDVSHEDPEVQFNWYVDGVEVHNAKTKPREEQFNSTFRVVSVLTVVHQDWANGKEYKCKVSNKGLPAPIEKTISKTKGQPREPQVYTLPPSREEMTKNQVSLTCLVKGFYPSDIAVEWESNGQPENNYKTTPPMLDSDGSFFLYSKLTVDKSRWQQGNVFSCSVMHEALHNHYTQKSLSLSPSK
light: SYVLTQPPSVSVAPGQTARITCGGDNIGSKSVNWFQQKPGQAPVLVVYDDNERPSGISERFSGSNSGNTATLTISRVEAGDEADYYCQVWDSSSDHVVFGGGTKLTVLGQPKAAPSVTLFPPSSEELQANKATLVCLISDFYPGAVTVAWKADSSPVKAGVETTTPSKQSNNKYAASSYLSLTPEQWKSHRSYSCQVTHEGSTVEKTVAPTECS
- Relative Binding [1]: 0.16 ratio
- IC50 [2]: 68.7 mg/L

B2: OST577-IgG1 wild-type (antibody)
heavy: not shown
light: B1 light
notes: Human anti-HBV antibody, IgG1 heavy, lambda-2 light
- Relative Binding [3]: 1 ratio
- Relative Binding [4]: 1 ratio
- Relative Binding [5]: 1 ratio
- IC50 [6]: 13.9 mg/L
- IC50 [7]: 10.3 mg/L
- IC50 [8]: 8.86 mg/L

B3: OST577-IgG2M3 T250A (antibody)
heavy: B1 heavy with T251A, A315L
light: B1 light
- Relative Binding [1]: 0.8 ratio
- IC50 [2]: 13.3 mg/L

B4: OST577-IgG2M3 L314W (antibody)
heavy: B1 heavy with A315W
light: B1 light
- Relative Binding [1]: 0.53 ratio
- IC50 [2]: 20.2 mg/L

B5: OST577-IgG1 T250E (antibody)
heavy: not shown
light: B1 light
- Relative Binding [3]: 2.6 ratio
- IC50 [6]: 5.26 mg/L

B6: OST577-IgG1 T250Q/M428L (antibody)
heavy: not shown
light: B1 light
- Relative Binding [4]: 29 ratio
- Relative Binding [5]: 37 ratio
- IC50 [7]: 0.351 mg/L
- IC50 [8]: 0.236 mg/L

B7: OST577-IgG2M3 L314Q (antibody)
heavy: B1 heavy with A315Q
light: B1 light
- Relative Binding [1]: 0.33 ratio
- IC50 [2]: 32 mg/L

B8: OST577-IgG2M3 M428L (antibody)
heavy: B1 heavy with A315L, M429L
light: B1 light
- Relative Binding [9]: 6.7 ratio
- Relative Binding [10]: 7.7 ratio
- IC50 [11]: 1.79 mg/L
- IC50 [12]: 1.92 mg/L

B9: OST577-IgG1 M428L (antibody)
heavy: not shown
light: B1 light
- Relative Binding [4]: 11 ratio
- Relative Binding [5]: 14 ratio
- IC50 [7]: 0.896 mg/L
- IC50 [8]: 0.629 mg/L

B10: OST577-IgG2M3 T250V (antibody)
heavy: B1 heavy with T251V, A315L
light: B1 light
- Relative Binding [1]: 0.56 ratio
- IC50 [2]: 19 mg/L

B11: OST577-IgG2M3 T250Q/M428F (antibody)
heavy: B1 heavy with T251Q, A315L, M429F
light: B1 light
- Relative Binding [9]: 8 ratio
- Relative Binding [10]: 8.4 ratio
- IC50 [11]: 1.5 mg/L
- IC50 [12]: 1.77 mg/L

B12: OST577-IgG1 T250Q (antibody)
heavy: not shown
light: B1 light
- Relative Binding [4]: 3.3 ratio
- Relative Binding [5]: 3 ratio
- IC50 [7]: 3.14 mg/L
- IC50 [8]: 2.97 mg/L

B13: OST577-IgG2M3 T250Q (antibody)
heavy: B1 heavy with T251Q, A315L
light: B1 light
- Relative Binding [9]: 2.8 ratio
- Relative Binding [10]: 3.6 ratio
- IC50 [11]: 4.2 mg/L
- IC50 [12]: 4.05 mg/L

B14: OST577-IgG1 M428F (antibody)
heavy: not shown
light: B1 light
- Relative Binding [3]: 4 ratio
- IC50 [6]: 3.44 mg/L

B15: OST577-IgG2M3 M428G (antibody)
heavy: B1 heavy with A315L, M429G
light: B1 light
- Relative Binding [1]: 0.072 ratio
- IC50 [2]: 147 mg/L

B16: OST577-IgG2M3 T250D (antibody)
heavy: B1 heavy with T251D, A315L
light: B1 light
- Relative Binding [1]: < 0.05 ratio

B17: OST577-IgG2M3 L314R (antibody)
heavy: B1 heavy with A315R
light: B1 light
- Relative Binding [1]: 0.11 ratio
- IC50 [2]: 102 mg/L

B18: OST577-IgG2M3 T250S (antibody)
heavy: B1 heavy with T251S, A315L
light: B1 light
- Relative Binding [1]: 0.89 ratio
- IC50 [2]: 12 mg/L

B19: OST577-IgG1 T250E/M428F (antibody)
heavy: not shown
light: B1 light
- Relative Binding [3]: 14 ratio
- IC50 [6]: 0.99 mg/L

B20: OST577-IgG2M3 T250Q/M428L (antibody)
heavy: B1 heavy with T251Q, A315L, M429L
light: B1 light
- Relative Binding [9]: 28 ratio
- Relative Binding [10]: 27 ratio
- IC50 [11]: 0.43 mg/L
- IC50 [12]: 0.554 mg/L
